Results on 2 molecules are retold here after patent publication US20220041711A1 (NGM BIOPHARMACEUTICALS, published 2022).

One test addresses T1, human LAIR-1-ECD (human, UniProt Q6GTX8 22-165).
T1 construct: Recombinant, expressed in mammalian cells; also called extracellular region of human LAIR-1
T1 chain: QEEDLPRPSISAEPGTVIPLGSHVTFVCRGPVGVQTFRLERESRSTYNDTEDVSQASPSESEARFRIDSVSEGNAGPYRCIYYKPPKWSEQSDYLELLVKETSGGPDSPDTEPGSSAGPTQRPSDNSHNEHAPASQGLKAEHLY
Put plainly: SPR (Biacore) as in Example 2. A general note: In SPR one partner is held on a chip, and binding of the other changes the refractive index at the surface.

A further test deals with T2, cyno LAIR-1-ECD (cynomolgus monkey).
T2 construct: Recombinant, expressed in mammalian cells; also called extracellular region of cyno LAIR-1
T2 chain: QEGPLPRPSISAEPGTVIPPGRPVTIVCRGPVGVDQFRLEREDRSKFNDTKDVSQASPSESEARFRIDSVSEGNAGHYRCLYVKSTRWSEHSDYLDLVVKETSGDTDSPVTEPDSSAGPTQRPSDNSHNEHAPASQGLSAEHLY
The test can be described thus: SPR (Biacore) as in Example 2.

In test [1] the target is T3, human LAIR-1-CD3ζ chimeric receptor on NFAT-GFP reporter cells (human, UniProt P20963 31-164, limits assumed). Put plainly: cell-based or functional assay.
The target in test [2] is T3, human LAIR-1-CD3ζ chimeric receptor on …. Put plainly: cell-based or functional assay. This is another data set of the same source.
Test [3] shares this target. Put plainly: cell-based or functional assay. This is another data set of the same source.
The target of test [4] is T4, cyno LAIR-1-CD3ζ chimeric receptor on NFAT-GFP reporter cells (cynomolgus monkey; human). The test can be described thus: cell-based or functional assay.
For test [5], the target named is T3, human LAIR-1-CD3ζ chimeric receptor on …. The test can be described thus: cell-based or functional assay. The source holds these as a separate data set.
Test [6] addresses T4, cyno LAIR-1-CD3ζ chimeric receptor on …. The test can be described thus: cell-based or functional assay. This is another data set of the same source.
The target in test [7] is T3, human LAIR-1-CD3ζ chimeric receptor on …. The test can be described thus: cell-based or functional assay. The source holds these as a separate data set.
Test [8] deals with T4, cyno LAIR-1-CD3ζ chimeric receptor on …. Put plainly: cell-based or functional assay. This is another data set of the same source.
Test [9] addresses T5, human LAIR-1, endogenous on human cells (human, UniProt Q6GTX8 22-287).
T5 construct: Native receptor of primary human cells and of the THP1 line; isoform on the cells not determined; also called LAIR-1 on PBMC subsets, THP1 cells, monocyte-derived dendritic cells, macrophages and T-cells
T5 chain: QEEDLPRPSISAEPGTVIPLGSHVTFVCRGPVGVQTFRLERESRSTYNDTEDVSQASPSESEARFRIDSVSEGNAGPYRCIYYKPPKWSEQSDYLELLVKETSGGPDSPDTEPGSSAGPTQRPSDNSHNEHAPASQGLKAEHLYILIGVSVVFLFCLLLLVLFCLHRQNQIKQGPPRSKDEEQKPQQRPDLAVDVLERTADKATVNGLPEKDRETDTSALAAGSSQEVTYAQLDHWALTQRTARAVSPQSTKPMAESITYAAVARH
Put plainly: flow cytometry of human PBMCs (9 donors) with Alexa Fluor 488-labelled ch47H1. On the technique in general: A flow cytometer gives signals particle by particle.

Test [10] concerns the target T3, human LAIR-1-CD3ζ chimeric receptor on …. Put plainly: flow cytometry on human LAIR-1 reporter cells, PE anti-human Fc secondary, MFI (panel Human LAIR1 Cells).
For test [11], the target named is T4, cyno LAIR-1-CD3ζ chimeric receptor on …. Put plainly: flow cytometry on cyno LAIR-1 reporter cells, PE anti-human Fc secondary, MFI (panel Cynomolgus Monkey LAIR1 Cells).
The target of test [12] is T6, human LAIR-1b (alternative isoform of human LAIR-1) on transfected 293T cells (human, UniProt Q6GTX8 22-287).
T6 chain: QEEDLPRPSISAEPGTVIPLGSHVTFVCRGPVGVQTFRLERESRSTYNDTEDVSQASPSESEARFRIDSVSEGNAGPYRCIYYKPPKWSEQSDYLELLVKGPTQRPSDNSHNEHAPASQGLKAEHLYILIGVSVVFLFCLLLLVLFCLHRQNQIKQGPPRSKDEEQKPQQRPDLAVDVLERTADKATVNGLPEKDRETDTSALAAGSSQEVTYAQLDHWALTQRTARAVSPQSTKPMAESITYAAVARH
The test can be described thus: flow cytometry on cells expressing human LAIR-1b, PE anti-human Fc secondary, MFI (panel Human LAIR1 (Truncated) Cells).

The next test deals with T7, human LAIR-1-Fc (human, UniProt Q6GTX8 22-165).
T7 construct: also called biotinylated human LAIR-1-Fc; not shown: a Fc region
T7 chain: T1 chain
Put plainly: ELISA blocking: plate coated with 5 µg/mL human collagen type 1, antibody titrated, 1 µg/mL biotinylated human LAIR-1-Fc, streptavidin-HRP, OD650. (In general: In an ELISA, binding on a coated surface is turned into a signal by an enzyme label.)

The target in test [13] is T8, mouse LAIR-1-PILRβ chimeric receptor on GFP reporter cells (mouse). Put plainly: cell-based or functional assay.
Test [14] concerns the target T8, mouse LAIR-1-PILRβ chimeric receptor on …. Put plainly: cell-based or functional assay. The source holds these as a separate data set.
For test [15], the target named is T9, mouse LAIR-1-hFc (Sino Biological) (mouse, UniProt Q8BG84 22-144, limits assumed).
T9 construct: Bought; also called mouse LAIR-1-Fc; not shown: human Fc (hFc)
T9 sequence: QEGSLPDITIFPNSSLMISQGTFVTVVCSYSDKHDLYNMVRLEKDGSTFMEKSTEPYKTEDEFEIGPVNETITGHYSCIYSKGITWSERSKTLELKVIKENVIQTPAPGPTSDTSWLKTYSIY
The test can be described thus: ELISA blocking: plate coated with 2 µg/mL mouse collagen type 1, antibody pre-incubated with 2 µg/mL mouse LAIR-1-hFc, HRP anti-human Fc, OD650 (left panel).

Test [16] deals with T9, mouse LAIR-1-hFc (Sino Biological). Put plainly: flow cytometry blocking: antibody pre-incubated with 2 µg/mL mouse LAIR-1-hFc, added to HEK-293T cells transfected with mouse MARCO, Alexa Fluor 647 anti-human Fc, MFI (right panel).

Where two headings read alike, the source gives them in different places.

B1: anti-LAIR-1 antibody ch47H1 (antibody, V domains shown)
VH: EVQLVETGGGLVQPKGSLKLSCAASGFTFNINAMNWVRQAPGKGLEWVARIRTKNNNYATFYADSVKDRFTISRDDSQSMLYLQMNNLKTDDTAMYYCVRDRAGFFAYWGQGTPVTVSA
VL: DIQMTQSPASQSASLGESVTITCLASQTIGTWLGWYRQKPGKSPQLLIYAATSLADGVPSRFSGSGSGTKFSFKISSLQAEDFVIYYCQQLYSTPLTFGSGTKLEIK
notes: The prefix 'ch' is not defined; detected with anti-human Fc secondary antibody
The Kd is the equilibrium constant for the complex coming apart. A word on the koff: it is the rate constant with which the complex falls apart. A word on the kon: it is the rate constant with which the complex forms. One may read the EC50 (read off the curve) as the concentration at which the effect is half-maximal. Regarding B1, in the test with human LAIR-1-ECD, the Kd was 0.34 nM, the koff is 0.00051 s⁻¹ and the kon was found to be 1.5e+06 M⁻¹ s⁻¹. In the test with cyno LAIR-1-ECD, this molecule returned a Kd of 4.6 nM, a koff of 0.001 s⁻¹ and a kon of 220000 M⁻¹ s⁻¹. Also, in test [1], the “IC50 (read off the curve): % GFP+ human LAIR-1 reporter cells on coated MARCO-his” value was around 70 pM, the “IC50 (read off the curve): % GFP+ human LAIR-1 reporter cells on coated collagen 1” value is around 90 pM and the “IC50 (read off the curve): % GFP+ human LAIR-1 reporter cells on coated collagen 4” value was around 60 pM. Also, in test [2], the “IC50 (read off the curve): % GFP+ human LAIR-1 reporter cells on coated C1 complex” value is around 20 pM, the “IC50 (read off the curve): % GFP+ human LAIR-1 reporter cells on coated COLEC12” value was around 50 pM, the “IC50 (read off the curve): % GFP+ human LAIR-1 reporter cells on coated MARCO-his” value was around 30 pM and the “IC50 (read off the curve): % GFP+ human LAIR-1 reporter cells on coated MBL” value is around 60 pM. Besides, in test [2], the “IC50 (read off the curve): % GFP+ human LAIR-1 reporter cells on coated SP-D” value is around 30 pM, the “IC50 (read off the curve): % GFP+ human LAIR-1 reporter cells on coated collagen 1” value is around 20 pM and the “IC50 (read off the curve): % GFP+ human LAIR-1 reporter cells on coated collagen 4” value was around 20 pM. Moreover, in test [3], the “IC50 (read off the curve): % GFP+ human LAIR-1 reporter cells on coated MARCO-his” value is around 20 pM, the “IC50 (read off the curve): % GFP+ human LAIR-1 reporter cells on coated collagen 1” value is around 20 pM and the “IC50 (read off the curve): % GFP+ human LAIR-1 reporter cells on coated collagen 4” value was around 20 pM. Further, in test [4], the “IC50 (read off the curve): % GFP+ cyno LAIR-1 reporter cells on coated MARCO-his” value was around 100 pM, the “IC50 (read off the curve): % GFP+ cyno LAIR-1 reporter cells on coated collagen 1” value was around 200 pM and the “IC50 (read off the curve): % GFP+ cyno LAIR-1 reporter cells on coated collagen 4” value is around 200 pM. Besides, the “IC50 (read off the curve): % GFP+ human LAIR-1 reporter cells co-cultured with bEnd.3 cells” value in test [5] is around 20 pM. Also, in [6], the “IC50 (read off the curve): % GFP+ cyno LAIR-1 reporter cells co-cultured with bEnd.3 cells” value is around 100 pM. Moreover, the “IC50 (read off the curve): % GFP+ human LAIR-1 reporter cells on polymerized collagen matrix” value in [7] is around 30 pM. The “IC50 (read off the curve): % GFP+ cyno LAIR-1 reporter cells on polymerized collagen matrix” value in [8] was around 200 pM. Besides, the binding result in [9] was “binds”. The “EC50 (read off the curve)” value in [10] is around 200 pM. Moreover, the “EC50 (read off the curve)” value in test [11] is around 700 pM. The “EC50 (read off the curve)” value in test [12] is around 1 nM. In addition, the “IC50 (read off the curve)” value with human LAIR-1-Fc was around 3 nM.

B2: anti-mouse LAIR-1 antibody 43H2 (antibody, V domains shown)
VH: EVQLVESGGGLVQPGRSLKVSCAASGFTFSNYGIHWIRQAPTKGLEWVASISPSGRSTYFRDSVKGRFTISRDNAKNTLYLQLDSLRSEDTATYYCATGINYSSFDYWGQGVMVTVSS
VL: DIVMTQSPTSMSISVGDRVTMNCKASQNVGSHVDWYQQKTGQSPKLLISTASNRYTGVPDRFTGSGSGTDFTFTINNMQTEDLAVYYCMQSNSYPPTFGGGTKLELK
notes: Raised in rats
As for B2, in test [13], the “IC50 (read off the curve): % GFP+ mouse LAIR-1 reporter cells on coated human MARCO-his” value is around 100 pM, the “IC50 (read off the curve): % GFP+ mouse LAIR-1 reporter cells on coated mouse collagen type 1” value is around 40 pM and the “IC50 (read off the curve): % GFP+ mouse LAIR-1 reporter cells on coated mouse collagen type 4” value is around 20 pM. In addition, in [14], the “IC50 (read off the curve): % GFP+ mouse LAIR-1 reporter cells co-cultured with bEnd.3 cells” value is around 20 pM. In addition, the “IC50 (read off the curve)” value in [15] is around 80 nM. The “IC50 (read off the curve)” value in test [16] was around 20 nM.
